{
  "source": "patent US20240317834A1",
  "about": "“COMPOSITIONS AND METHODS FOR NEUROLOGICAL DISEASES” (CODA BIOTHERAPEUTICS, INC., priority 2020, published 2024)",
  "molecules": {"B1": {"name": "CODA405: engineered chimeric LGIC receptor, Y210V in SEQ ID NO: 33 (protein)", "chain": "MRCSPGGVWLALAASLLHVSLQGEFQRKLYKELVKNYNPLERPVANDSQPLTVYFSLSLLQIMDVDEKNQVLTTNIWLQMSWTDHYLQWNVSEYPGVKTVRFPDGQIWKPDILLYNSADERFDATFHTNVLVNSSGHCQYLPPGIFKSSCPMDLKNFPMDVQTCKLKFGSWSYGGWSLDLQMQEADISGYIPNGEWDLVGIPGKRSERFVECCKEPYPDVTFTVTMRRRMGYYLIQMYIPSLLIVILSWISFWINMDAAPARVGLGITTVLTMTTQSSGSRASLPKVSYVKAIDIWMAVCLLFVFSALLEYAAVNFVSRQHKELLRFRRKRRHHKSPMLNLFQEDEAGEGRFNFSAYGMGPACLQAKDGISVKGANNSNTTNPPPAPSKSPEEMRKLFIQRAKKIDKISRIGFPMAFLIFNMFYWIIYKIVRREDVHNQ", "modifications": "synthetic sequence of chimeric LGIC"}},
  "system": "Lenti-X 293T cells",
  "assay": "YFP fluorescence quenching anion reporter plate reader assay of engineered receptors stimulated with acetylcholine or a non-native ligand",
  "format": "cell-based",
  "in_short": "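Lenti-X 293T cells carrying a YFP anion reporter were transiently transfected with channel DNA and assayed the next day in HEPES-buffered ECS at pH 7.2. Ligand (acetylcholine or non-native ligand) was added in NaI-substituted ECS. Percent quench was the mean of the last 10 s relative to the 15 s pre-addition baseline.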",
  "data": [
    {"molecule": "B1", "values": [
      {"measurement": "YFP fluorescence quenching using CNL001", "setting": "1 nM CNL001, first column", "result": "−16.246", "unit": "%"},
      {"measurement": "YFP fluorescence quenching using CNL001", "setting": "1 nM CNL001, second column", "result": "−4.217", "unit": "%"},
      {"measurement": "YFP fluorescence quenching using TC-5619/Bradanicline", "setting": "3 nM brd", "result": 9.92, "unit": "%"},
      {"measurement": "YFP fluorescence quenching using Varenicline", "setting": "3 nM var, first column", "result": 7.317},
      {"measurement": "YFP fluorescence quenching using Varenicline", "setting": "3 nM var, second column", "result": 7.643},
      {"measurement": "YFP fluorescence quenching using CNL001", "setting": "10 nM CNL001, first column", "result": "−6.142", "unit": "%"},
      {"measurement": "YFP fluorescence quenching using CNL001", "setting": "10 nM CNL001, second column", "result": "−10.003", "unit": "%"},
      {"measurement": "YFP fluorescence quenching using TC-5619/Bradanicline", "setting": "30 nM brd", "result": 4.37, "unit": "%"},
      {"measurement": "YFP fluorescence quenching using Facinicline", "setting": "30 nM fac", "result": "−26.25"},
      {"measurement": "YFP fluorescence quenching using Varenicline", "setting": "30 nM var, first column", "result": 9.457},
      {"measurement": "YFP fluorescence quenching using Varenicline", "setting": "30 nM var, second column", "result": 9.134},
      {"measurement": "YFP fluorescence quenching using CNL001", "setting": "50 nM CNL001, first column", "result": "−11.054", "unit": "%"},
      {"measurement": "YFP fluorescence quenching using CNL001", "setting": "50 nM CNL001, second column", "result": "−10.06", "unit": "%"},
      {"measurement": "YFP fluorescence quenching using ABT-126", "setting": "50 nM abt", "result": "−2.9", "unit": "%"},
      {"measurement": "YFP fluorescence quenching using CNL001", "setting": "100 nM CNL001, first column", "result": "−3.832", "unit": "%"},
      {"measurement": "YFP fluorescence quenching using CNL001", "setting": "100 nM CNL001, second column", "result": "−3.784", "unit": "%"},
      {"measurement": "YFP fluorescence quenching using CNL002", "setting": "100 nM CNL002", "result": "−14.3", "unit": "%"},
      {"measurement": "YFP fluorescence quenching using ABT-126", "setting": "100 nM abt", "result": "−2.06", "unit": "%"},
      {"measurement": "YFP fluorescence quenching using AZD-0328", "setting": "100 nM azd0328", "result": "−8.13", "unit": "%"},
      {"measurement": "YFP fluorescence quenching using ABT-126", "setting": "300 nM abt", "result": "−0.19", "unit": "%"},
      {"measurement": "YFP fluorescence quenching using AZD-0328", "setting": "300 nM azd0328", "result": "−3.35", "unit": "%"},
      {"measurement": "YFP fluorescence quenching using TC-5619/Bradanicline", "setting": "300 nM brd", "result": 59, "unit": "%"},
      {"measurement": "YFP fluorescence quenching using Facinicline", "setting": "300 nM fac", "result": "−23.52"},
      {"measurement": "YFP fluorescence quenching using Varenicline", "setting": "300 nM var, first column", "result": 15.503},
      {"measurement": "YFP fluorescence quenching using Varenicline", "setting": "300 nM var, second column", "result": 11.954},
      {"measurement": "YFP fluorescence quenching using Varenicline", "setting": "500 nM var, first column", "result": 13.427},
      {"measurement": "YFP fluorescence quenching using Varenicline", "setting": "500 nM var, second column", "result": 10.784},
      {"measurement": "YFP fluorescence quenching using CNL001", "setting": "1 uM CNL001, first column", "result": 1.129, "unit": "%"},
      {"measurement": "YFP fluorescence quenching using CNL001", "setting": "1 uM CNL001, second column", "result": 7.1, "unit": "%"},
      {"measurement": "YFP fluorescence quenching using CNL002", "setting": "1 uM CNL002", "result": "−7.56", "unit": "%"},
      {"measurement": "YFP fluorescence quenching using ABT-126", "setting": "1 uM abt", "result": "−3.64", "unit": "%"},
      {"measurement": "YFP fluorescence quenching using TC-6987", "setting": "1 uM tc6987", "result": "−22.63"},
      {"measurement": "YFP fluorescence quenching using Varenicline", "setting": "1 uM var, first column", "result": 9.032},
      {"measurement": "YFP fluorescence quenching using Varenicline", "setting": "1 uM var, second column", "result": 11.591},
      {"measurement": "YFP fluorescence quenching using TC-6987", "setting": "10 uM tc6987", "result": "−23.03"},
      {"measurement": "YFP fluorescence quenching using CNL002", "setting": "30 uM CNL002", "result": "−2.02", "unit": "%"},
      {"measurement": "YFP fluorescence quenching using AZD-0328", "setting": "30 uM azd0328", "result": "−2.86", "unit": "%"},
      {"measurement": "YFP fluorescence quenching using Facinicline", "setting": "30 uM fac", "result": 0.83},
      {"measurement": "YFP fluorescence quenching using TC-6987", "setting": "500 uM tc6987", "result": "−40.88"},
      {"measurement": "percent quench of YFP fluorescence, 10 uM ach", "setting": "acetylcholine 10 uM", "result": "−6.31", "unit": "%"},
      {"measurement": "percent quench of YFP fluorescence, 100 uM ach", "setting": "acetylcholine 100 uM", "result": "−14.48", "unit": "%"},
      {"measurement": "percent quench of YFP fluorescence, 1 mM ach", "setting": "acetylcholine 1 mM", "result": "−2.82", "unit": "%"},
      {"measurement": "percent quench of YFP fluorescence, 3 mM ach", "setting": "acetylcholine 3 mM", "result": 1.06, "unit": "%"}
    ]}
  ]
}
